T1: bovine RNase A (Bos taurus, UniProt P61823)
T1 sequence (P61823 27-150): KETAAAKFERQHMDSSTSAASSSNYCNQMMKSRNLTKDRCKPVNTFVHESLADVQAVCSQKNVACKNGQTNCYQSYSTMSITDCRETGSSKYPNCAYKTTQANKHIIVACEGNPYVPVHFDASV

B1: PK: proteinase K, protease that digests RNase proteins to peptide fragments (protein, UniProt P06873 106-384, looked up)
Proteinase K: AAQTNAPWGLARISSTSPGTSTYYYDESAGQGSCVYVIDTGIEASHPEFEGRAQMVKTYYYSSRDGNGHGTHCAGTVGSRTYGVAKKTQLFGVKVLDDNGSGQYSTIIAGMDFVASDKNNRNCPKGVVASLSLGGGYSSSVNSAAARLQSSGVMVAVAAGNNNADARNYSPASEPSVCTVGASDRYDRRSSFSNYGSVLDIFGPGTSILSTWIGGSTRSISGTSMATPHVAGLAAYLMTLGKTTAASACRYIADTANKGDLSNIPFGTVNLLAYNNYQA
B2: RIP: human placental RNase Inhibitor Protein (protein, UniProt P13489 2-461, looked up)
Ribonuclease inhibitor: SLDIQSLDIQCEELSDARWAELLPLLQQCQVVRLDDCGLTEARCKDISSALRVNPALAELNLRSNELGDVGVHCVLQGLQTPSCKIQKLSLQNCCLTGAGCGVLSSTLRTLPTLQELHLSDNLLGDAGLQLLCEGLLDPQCRLEKLQLEYCSLSAASCEPLASVLRAKPDFKELTVSNNDINEAGVRVLCQGLKDSPCQLEALKLESCGVTSDNCRDLCGIVASKASLRELALGSNKLGDVGMAELCPGLLHPSSRLRTLWIWECGITAKGCGDLCRVLRAKESLKELSLAGNELGDEGARLLCETLLEPGCQLESLWVKSCSFTAACCSHFSSVLAQNRFLLELQISNNRLEDAGVRELCQGLGQPGSVLRVLWLADCDVSDSSCSSLAATLLANHSLRELDLSNNCLGDAGILQLVESVRQPGCLLEQLVLYDIYWSEEMEDRLQALEKDKPSLRVIS

Experiments:
[1] = tested on: total RNase activity in murine kidney plus pancreatic lysate; assay: Proteinase K inactivation of total RNase activity in kidney lysate with pancreatic lysate; assay type: biochemical; details: 600 ng/uL PK
Experimental: Murine kidney (40 ul of 0.1 mg/ul) was introduced into a 50 uL reaction with a dilute pancreatic lysate (1 or 10 ul of pancreas at 0.1 mg/ul) prepared in 24 mM Hepes, pH 7.2, 50 mM NaCl, 1 MM MgCl2. All samples were digested at 50C for 5 min in PK buffer at 23C. […] Although proteinase K is a protein-based inhibitor, RNase inactivation occurs by a very different mechanism than a protein inhibitor such as RIP, since proteinase K digests RNase proteins to peptide fragments, thereby destroying the folded (active) conformation of the enzyme.

[2] = tested on: total RNase activity in spleen lysate; assay: RNaseAlert fluorescent assay, spleen lysate; assay type: biochemical, mouse; details: 0.5 U/ul RIP
Experimental: (§1) Flash-frozen mouse tissues (5 mg) were dounced in 50 ul of 24 mM Hepes, pH 7.2, 50 mM NaCl, 1 mM MgCl2. RNase activity was measured using Ambion's fluorescent RNaseAlert™ assay ([…] substrate, 10 ug/ml ultrapure BSA) via BMG POLARstar Optima Fluorometer according to the manufacturer's protocol. In addition to measuring total RNase activity, lysates were treated with Ap5A, heat (90 C for 10 min), or 0.5 U/ul RIP. Tissue lysate dilutions: pancreas 1:16,200; liver 1:17; thymus 1:17; kidney 1:17; spleen 1:810; lung 1:810. The data were normalized to maximum RNase activity observed in tissue lysate with kidney being the tissue with the lowest RNase activity and assigned the arbitrary unit of 1. […] However, RIP is specific to RNase A superfamily enzymes, where Ap5A, as a RNA analogue, is expected to be a more general RNase inhibitor.

[3] = tested on: total RNase activity in pancreas lysate; assay: RNaseAlert fluorescent assay, pancreas lysate; assay type: biochemical, mouse; details: Pancreas, 0.5 U/ul RIP
Experimental: as §1
Pancreatic tissue (5 mg) was dounced in 50ul of 24 mM Hepes, pH 7.2, 50 mM NaCl, 1 mM MgCl2. Diluted pancreas lysate (1:12,000) was subjected to a 1/10 volume of negatively charged SP resin. RNase activity of the clarified lysate was measured using. Ambion's fluorescent RNaseAlert™ assay (40 nM substrate, 10 ug/ml ultrapure BSA) via BMG POLARstar Optima, according to the manufacturer's instructions. Resin treatment removed >95% of total RNase activity in diluted pancreas lysate. […]

[4] = tested on: total RNase activity in lung lysate; assay: RNaseAlert fluorescent assay, lung lysate; assay type: biochemical, mouse; details: 0.5 U/ul RIP
Experimental: as §1

bovine RNase A = molecular target: T1, bovine RNase A; assay: Intactness of total RNA (RNA LabChip), bovine RNase A; assay type: biochemical; details: 0.2u/ul rip, 5 pg/ul bovine rnase a, e. coli total rna, room temperature 4 min
Experimental: A total of 100 pg/ul e. […].
Mouse pancreatic tissue (5 mg) was disrupted in 50 ul of 24 mM Hepes, pH 7.2, 50 mM NaCl, 1 mM MgCl2. The diluted lysate (1:20,000) was pre-incubated with 50 uM Benzopurpurin B (BpB) for 30 sec and then added to 100 ng/ul mouse liver total RNA (Ambion) and incubated at 23 C for an additional 4 min. Samples were quenched in a guanidinium lysis buffer, and the RNA purified via MEGAclear™ MAG-96 and eluted with 20 ul nuclease-free water. […] These experiments were conducted in the same fashion except that 100 uM BpB was employed. The sample (1 ul) was analyzed by 2100 BioAnalyzer software (Agilent) after separation on an RNA LabChip.
Pancreatic tissue (5 mg) was dounced in 50 ul of 24 mM Hepes, pH 7.2, 50 mM NaCl, 1 mM MgCl2. The lysate was diluted (1:20,000) and then pre-incubated with 200 uM of 467929. […] All samples were pre-incubated for 30 sec before being added to 100 ng/ul mouse liver total RNA (Ambion) and incubated at 23C for an additional 4 min. The RNA was then immediately purified via MEGAclear™ MAG-96 and eluted with 20 ul nuclease-free water. The recovered RNA (1 ul) was analyzed by 2100 BioAnalyzer software after separation on an RNA LabChip.

Molecule | Fold Reduction ([1]; 1 uL pancreas) | Slope ([1]; 1 uL pancreas) [RFU/sec] | Fold Reduction ([1]; 10 uL pancreas) | Slope ([1]; 10 uL pancreas) [RFU/sec] | Slope ([1]; No pancreas) [RFU/sec] | % Inhibition [2] [%] | Slope/sec Final (After RIP addition) [2] | % Inhibition [3] [%] | Slope/sec Final (After RIP addition) [3] | % Inhibition [4] [%] | Slope/sec Final (After RIP addition) [4] | protection of total RNA from degradation (bovine RNase A)
B1 | 1283 | 0.0938 | 242 | 0.6074 | 0.0123 |  |  |  |  |  |  | 
B2 |  |  |  |  |  | 98.0 | 1.08 | 99.7 | 0.17 | 99.3 | 0.21 | significant protection
